The results in this text go back to US20220396618A1 (RESEARCH FOUNDATION FOR THE STATE UNIVERSITY OF NEW YORK, published 2022).

The target in assay [1] is T1, human RAGE R216A-R218A mutant (human, UniProt Q15109 23-342).
T1 construct: extracellular domain; Mutant of the human RAGE extracellular domain, immobilized for ELISA
The experiment in a line: ELISA on immobilized antigen. How it is done: As shown in the dashed oval, the epitope of B2 mAb includes R216 and R218. Panel B depicts the binding of B2 mAbs to immobilized WT human RAGE or the R216A-R218A mutant as determined by ELISA. The binding of B2 mAbs to R216A-R218A was reduced by 40-fold.
200 ng of human RAGE extracellular domain or R216A-R218A mutant were immobilized onto 96-well high-binding ELISA plate. Plates were blocked with 5% BSA in PBS and incubated with 0.01 to 10 nM of rabbit B2 mAb for 1 hour at room temperature. Bound B2 mAbs were quantitated with anti-rabbit-HRP (Jackson Immunology) followed by the addition of HRP substrate (Thermo Scientific).
A general note: In an ELISA, binding on a coated surface is turned into a signal by an enzyme label.

Assay [2] addresses T2, human RAGE extracellular domain (human, UniProt Q15109 23-342).
T2 construct: extracellular domain; Immobilized on ELISA plates; also called WT human RAGE
In words: ELISA, apparent Kd.

The next assay addresses T3, murine RAGE V-C1 domain (murine, UniProt Q62151 23-231, limits assumed).
T3 construct: domain: V-C1 domain; Used as the immunogen and as the ELISA antigen; also called mVC1; WT mVC1
The experiment in a line: ELISA, apparent Kd.

In the next assay the target is murine RAGE (murine, UniProt Q62151 23-231, limits assumed). In words: ELISA, apparent Kd.
Sequence of murine RAGE (Q62151 23-231 limits assumed): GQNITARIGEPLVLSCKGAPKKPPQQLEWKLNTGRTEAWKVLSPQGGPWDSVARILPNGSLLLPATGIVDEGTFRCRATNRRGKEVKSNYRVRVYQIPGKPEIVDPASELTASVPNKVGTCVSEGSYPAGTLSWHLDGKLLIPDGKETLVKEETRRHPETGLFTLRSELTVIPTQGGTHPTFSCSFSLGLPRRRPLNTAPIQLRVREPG

T2 sequence (Q15109 23-342): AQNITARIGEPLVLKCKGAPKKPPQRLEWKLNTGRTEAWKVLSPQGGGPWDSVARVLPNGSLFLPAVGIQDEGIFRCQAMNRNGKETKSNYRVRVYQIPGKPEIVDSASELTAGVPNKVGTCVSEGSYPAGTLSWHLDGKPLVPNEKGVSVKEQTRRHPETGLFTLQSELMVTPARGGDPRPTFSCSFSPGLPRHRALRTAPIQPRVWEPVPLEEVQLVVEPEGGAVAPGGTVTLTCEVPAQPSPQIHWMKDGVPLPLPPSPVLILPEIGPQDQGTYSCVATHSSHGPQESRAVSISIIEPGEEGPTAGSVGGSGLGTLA
T3 sequence (Q62151 23-231 limits assumed): as the sequence (Q62151 23-231 limits assumed) above
T1 sequence (Q15109 23-342 R216A/R218A): as the sequence (Q15109 23-342) above, with R194A, R196A counted along it

B1: rabbit B2 mAb (antibody, V domains shown)
VH: QSVKESEGGLFKPTDTLTLTCTVSGFTISSYDMSWVRQAPGKGLEWIGAIDSSGSAHYASWARSRSTITRNTNLNTVTLKMTSLTAADTATYFCWNANIWGPGTLVTVSS
VL: AQVLTQTASPVSAAVGSTVTINCQASQNVYDNNHLSWYQQKRGQPPKLLIYYASALASGVSSRFKGSGSGTQFTLTINDVQCDDAATYYCLGSYDCSADCFAFGGGTEVVV
notes: Rabbit monoclonal antibody from a hybridoma; also called B2 mAbs; rabbit mAb B2
Regarding B1, the “fold reduction of binding against WT human RAGE” value in assay [1] is 40 fold. Further, the results for the Kd (in assay [2]; with murine RAGE V-C1 domain; in the assay with murine RAGE) were 0.08 nM, 0.08 nM and 0.03 nM, respectively.
